Experimental data as given in patent publication US20130058965A1, “INJECTABLE FORMULATIONS FOR PARENTERAL ADMINISTRATION” (MANNKIND CORPORATION, priority 2009, published 2013).

Target: HLA-A*0201 (Homo sapiens, UniProt P04439, D140Y/D185E/D98H/E176V/E277Q/G131W/G231S/I119V/I121R/I166T/I218V/L300P/L318F/N151K/N90K/P208A/P217A/Q86G/Q94H/R138H/R169H/T345S)
Assay: NY-ESO-1 analogues, % peptide binding (Table 1)

| % Peptide Binding | Substance |
| --- | --- |
| 80% | NY-ESO-1 157-165 (S157Y, C165V) (YLLMWITQV; Peptide analogue) [SEQ ID NO:13] |
| 80% | NY-ESO-1 157-165 (S157Y, L158(Nva), C165V) [SEQ ID NO:19] |
